Results published in the supplement of paper PMC10567573.

B1: C2orf65 (parent)
chain: QLDWDELETNQQHFHALCHSLLVS

Variants of: B1
Assay: protein stability index of a GFP-peptide fusion (GPS, HEK-293T) (PSI 1-6); higher = more stable
Conditions: c terminus: a fixed tail appended
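Note: lentivirally expressed fusions sorted by FACS into six bins by GFP to DsRed ratio, PSI derived from sequencing read proportions per bin multiplied by bin number.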

Protein stability index: each site, then its substitutions
L21: N 3.01, W 2.22, R 3.15, F 2.31, V 3.04, A 3.23, E 3.87, S 3.09, H 2.87, K 2.94, C 1.61, Q 2.91, T 2.93, G 3.04, I 2.06, P 2.95, M 2.28, D 3.83
S20: P 2.33, V 2.33, L 2.19, Q 2.03, K 2.04, E 1.93, D 2.98, I 2.13, M 2.27, G 2.21, N 2.61, T 1.95, R 1.91, H 2.57, A 1.79, C 1.5, F 1.43, W 1.9, Y 2.05
H13: S 1.98, Q 2.36, G 2.39, N 2.35, V 1.85, T 2.51, Y 2.5, I 1.71, P 2.63, M 1.65, R 1.88, F 2.15, W 1.55, K 2.02, E 2.89, L 1.99
L17: Y 2.05, S 2.58, E 3.69, V 1.74, F 1.9, A 2.75, Q 3.02, T 3.57, I 2.14, N 3.12, C 2.58, P 3.92, G 2.43, W 2.21, H 2.6, D 4.07, K 2.69, R 2.68, M 2.38
F14: K 3.26, W 2.18, S 2.91, C 2.46, I 2.48, P 2.87, Y 2.34, D 3.95, H 2.67, R 2.44, E 3.58, L 2.75, M 2.72, Q 3.42, V 2.79, T 3.32, A 3.53, G 3.51, N 3.19
A16: K 2.91, V 1.86, Q 2.27, E 3.07, N 1.95, D 2.58, I 2.2, S 2.33, L 1.63, H 2.35, G 2.41, W 1.53, Y 3.02, M 1.95, F 2.44, R 2.22, C 2.31, T 1.57, P 2.43
H15: M 2.33, Q 1.72, W 1.74, F 1.36, N 2.26, Y 1.82, D 2.64, S 1.85, A 1.92, G 2.48, V 2.39, I 2.36, T 2.28, L 1.61, R 1.71, K 2.42, E 2.78, C 1.66, P 2.12
C18: R 2.48, V 2.21, F 2.27, Q 2.76, M 2.11, E 3.64, S 2.88, K 3.2, W 2.14, H 2.65, N 2.96, I 1.66, Y 2.36, P 2.99, D 3.62, T 2.25, G 2.2, A 2.11, L 1.35
H19: D 2.94, A 1.88, I 1.79, Q 2.67, T 2.02, K 2.15, S 2.07, M 1.66, G 2.17, L 1.04, R 1.94, W 1.04, E 2.93, F 1.69, N 2.17, V 1.96, P 2.65, Y 1.94, C 2.21
